Source: US20140274782A1, “AFFINITY REAGENTS AND METHODS FOR DETECTION, PURIFICATION, AND PROTEOMIC ANALYSIS OF METHYLATED PROTEINS” (The Board of Trustees of the Leland Stanford Junior …, priority 2013, published 2014)

T1: G9a and GLP (Homo sapiens, UniProt Q96KQ7+Q9H9B1)
T1 sequence (Q96KQ7 2-1210 limits assumed): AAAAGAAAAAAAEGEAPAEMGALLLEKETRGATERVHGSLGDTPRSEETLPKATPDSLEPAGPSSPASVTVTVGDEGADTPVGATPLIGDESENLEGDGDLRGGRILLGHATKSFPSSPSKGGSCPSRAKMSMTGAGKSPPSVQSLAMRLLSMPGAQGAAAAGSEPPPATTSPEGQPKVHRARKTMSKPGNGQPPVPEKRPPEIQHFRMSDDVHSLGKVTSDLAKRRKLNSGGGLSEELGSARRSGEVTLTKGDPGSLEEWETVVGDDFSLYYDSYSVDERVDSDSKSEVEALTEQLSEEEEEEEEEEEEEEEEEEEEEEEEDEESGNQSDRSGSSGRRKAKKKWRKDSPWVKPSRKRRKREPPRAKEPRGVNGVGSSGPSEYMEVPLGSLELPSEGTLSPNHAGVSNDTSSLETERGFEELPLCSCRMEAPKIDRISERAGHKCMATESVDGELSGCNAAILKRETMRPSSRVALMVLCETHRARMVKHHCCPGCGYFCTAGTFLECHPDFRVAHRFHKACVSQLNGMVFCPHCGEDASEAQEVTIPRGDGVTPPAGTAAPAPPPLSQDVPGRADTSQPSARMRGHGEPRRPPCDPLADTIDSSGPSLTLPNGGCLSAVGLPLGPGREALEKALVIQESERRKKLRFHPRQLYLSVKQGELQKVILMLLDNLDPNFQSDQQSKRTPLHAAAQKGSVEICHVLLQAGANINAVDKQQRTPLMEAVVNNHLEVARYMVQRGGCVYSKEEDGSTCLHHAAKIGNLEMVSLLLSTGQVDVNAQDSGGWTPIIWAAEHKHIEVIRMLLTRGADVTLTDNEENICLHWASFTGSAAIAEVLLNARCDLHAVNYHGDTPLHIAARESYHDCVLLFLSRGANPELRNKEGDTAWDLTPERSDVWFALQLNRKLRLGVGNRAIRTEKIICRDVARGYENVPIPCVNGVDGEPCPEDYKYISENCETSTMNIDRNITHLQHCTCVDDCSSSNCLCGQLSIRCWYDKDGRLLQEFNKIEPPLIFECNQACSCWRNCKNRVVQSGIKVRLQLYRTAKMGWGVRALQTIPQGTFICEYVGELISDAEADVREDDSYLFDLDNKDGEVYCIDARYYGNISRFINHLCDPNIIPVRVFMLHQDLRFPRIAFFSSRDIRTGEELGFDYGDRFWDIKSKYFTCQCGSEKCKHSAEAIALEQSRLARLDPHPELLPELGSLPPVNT
T1 sequence (Q9H9B1 2-1298 limits assumed): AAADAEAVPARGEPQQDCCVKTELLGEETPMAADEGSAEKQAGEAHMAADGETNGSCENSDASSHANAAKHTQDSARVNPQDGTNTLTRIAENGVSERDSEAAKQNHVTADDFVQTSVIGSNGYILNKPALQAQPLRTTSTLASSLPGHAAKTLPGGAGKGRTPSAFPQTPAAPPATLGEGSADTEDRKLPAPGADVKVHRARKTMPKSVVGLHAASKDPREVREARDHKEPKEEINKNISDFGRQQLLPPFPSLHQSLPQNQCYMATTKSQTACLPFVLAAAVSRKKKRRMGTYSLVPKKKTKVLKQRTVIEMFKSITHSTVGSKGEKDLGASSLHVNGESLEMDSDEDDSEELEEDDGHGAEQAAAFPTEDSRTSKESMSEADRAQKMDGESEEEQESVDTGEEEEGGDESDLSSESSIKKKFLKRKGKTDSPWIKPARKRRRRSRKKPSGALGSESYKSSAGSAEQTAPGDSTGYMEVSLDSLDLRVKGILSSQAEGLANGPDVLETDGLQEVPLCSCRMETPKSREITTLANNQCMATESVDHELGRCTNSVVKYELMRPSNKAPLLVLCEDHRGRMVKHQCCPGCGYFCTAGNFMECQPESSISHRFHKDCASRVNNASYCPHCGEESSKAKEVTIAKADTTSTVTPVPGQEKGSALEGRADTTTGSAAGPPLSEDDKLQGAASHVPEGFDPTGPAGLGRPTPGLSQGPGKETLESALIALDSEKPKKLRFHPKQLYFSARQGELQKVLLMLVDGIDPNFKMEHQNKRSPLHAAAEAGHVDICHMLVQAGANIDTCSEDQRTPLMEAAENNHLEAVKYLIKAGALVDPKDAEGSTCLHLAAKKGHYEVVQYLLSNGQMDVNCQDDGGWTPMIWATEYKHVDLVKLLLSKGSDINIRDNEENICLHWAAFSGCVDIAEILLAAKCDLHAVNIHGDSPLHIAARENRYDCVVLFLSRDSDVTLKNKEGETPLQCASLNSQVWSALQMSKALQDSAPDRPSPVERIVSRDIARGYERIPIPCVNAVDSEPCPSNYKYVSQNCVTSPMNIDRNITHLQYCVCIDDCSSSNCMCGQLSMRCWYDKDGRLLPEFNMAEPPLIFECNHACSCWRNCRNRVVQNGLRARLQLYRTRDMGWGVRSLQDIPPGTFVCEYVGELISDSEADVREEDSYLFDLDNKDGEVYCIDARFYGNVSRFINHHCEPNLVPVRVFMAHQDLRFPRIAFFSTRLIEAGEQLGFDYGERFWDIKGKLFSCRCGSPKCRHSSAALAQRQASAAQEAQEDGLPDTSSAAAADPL

B1: LIG3 (protein, UniProt P49916 43-1009, looked up)
DNA ligase 3: LLHGHPLFLRRKPVLSFQGSHLRSRATYLVFLPGLHVGLCSGPCEMAEQRFCVDYAKRGTAGCKKCKEKIVKGVCRIGKVVPNPFSESGGDMKEWYHIKCMFEKLERARATTKKIEDLTELEGWEELEDNEKEQITQHIADLSSKAAGTPKKKAVVQAKLTTTGQVTSPVKGASFVTSTNPRKFSGFSAKPNNSGEAPSSPTPKRSLSSSKCDPRHKDCLLREFRKLCAMVADNPSYNTKTQIIQDFLRKGSAGDGFHGDVYLTVKLLLPGVIKTVYNLNDKQIVKLFSRIFNCNPDDMARDLEQGDVSETIRVFFEQSKSFPPAAKSLLTIQEVDEFLLRLSKLTKEDEQQQALQDIASRCTANDLKCIIRLIKHDLKMNSGAKHVLDALDPNAYEAFKASRNLQDVVERVLHNAQEVEKEPGQRRALSVQASLMTPVQPMLAEACKSVEYAMKKCPNGMFSEIKYDGERVQVHKNGDHFSYFSRSLKPVLPHKVAHFKDYIPQAFPGGHSMILDSEVLLIDNKTGKPLPFGTLGVHKKAAFQDANVCLFVFDCIYFNDVSLMDRPLCERRKFLHDNMVEIPNRIMFSEMKRVTKALDLADMITRVIQEGLEGLVLKDVKGTYEPGKRHWLKVKKDYLNEGAMADTADLVVLGAFYGQGSKGGMMSIFLMGCYDPGSQKWCTVTKCAGGHDDATLARLQNELDMVKISKDPSKIPSWLKVNKIYYPDFIVPDPKKAAVWEITGAEFSKSEAHTADGISIRFPRCTRIRDDKDWKSATNLPQLKELYQLSKEKADFTVVAGDEGSSTTGGSSEENKGPSGSAVSRKAPSKPSASTKKAEGKLSNSNSKDGNMQTAKPSAMKVGEKLATKSSPVKVGEKRKAADETLCQTKVLLDIFTGVRLYLPPSTPDFSRLRRYFVAFDGDLVQEFDMTSATHVLGSRDKNPAAQQVSPEWIWACIRKRRLVAPC
B2: RALY (protein, UniProt Q9UKM9 2-306, looked up)
RNA-binding protein Raly: SLKLQASNVTNKNDPKSINSRVFIGNLNTALVKKSDVETIFSKYGRVAGCSVHKGYAFVQYSNERHARAAVLGENGRVLAGQTLDINMAGEPKPDRPKGLKRAASAIYSGYIFDYDYYRDDFYDRLFDYRGRLSPVPVPRAVPVKRPRVTVPLVRRVKTNVPVKLFARSTAVTTSSAKIKLKSSELQAIKTELTQIKSNIDALLSRLEQIAAEQKANPDGKKKGDGGGAGGGGGGGGSGGGGSGGGGGGGSSRPPAPQENTTSEAGLPQGEARTRDDGDEEGLLTHSEEELEHSQDTDADDGALQ
B3: HPSE2 (protein, UniProt Q8WWQ2 42-592, looked up)
Inactive heparanase-2: GDRRPLPVDRAAGLKEKTLILLDVSTKNPVRTVNENFLSLQLDPSIIHDGWLDFLSSKRLVTLARGLSPAFLRFGGKRTDFLQFQNLRNPAKSRGGPGPDYYLKNYEDDIVRSDVALDKQKGCKIAQHPDVMLELQREKAAQMHLVLLKEQFSNTYSNLILTARSLDKLYNFADCSGLHLIFALNALRRNPNNSWNSSSALSLLKYSASKKYNISWELGNEPNNYRTMHGRAVNGSQLGKDYIQLKSLLQPIRIYSRASLYGPNIGRPRKNVIALLDGFMKVAGSTVDAVTWQHCYIDGRVVKVMDFLKTRLLDTLSDQIRKIQKVVNTYTPGKKIWLEGVVTTSAGGTNNLSDSYAAGFLWLNTLGMLANQGIDVVIRHSFFDHGYNHLVDQNFNPLPDYWLSLLYKRLIGPKVLAVHVAGLQRKPRPGRVIRDKLRIYAHCTNHHNHNYVRGSITLFIINLHRSRKKIKLAGTLRDKLVHQYLLQPYGQEGLKSKSVQLNGQPLVMVDDGTLPELKPRPLRAGRTLVIPPVTMGFYVVKNVNALACRYR
B4: HNRNPH1 (protein, UniProt P31943 1-449, looked up)
Heterogeneous nuclear …: MMLGTEGGEGFVVKVRGLPWSCSADEVQRFFSDCKIQNGAQGIRFIYTREGRPSGEAFVELESEDEVKLALKKDRETMGHRYVEVFKSNNVEMDWVLKHTGPNSPDTANDGFVRLRGLPFGCSKEEIVQFFSGLEIVPNGITLPVDFQGRSTGEAFVQFASQEIAEKALKKHKERIGHRYIEIFKSSRAEVRTHYDPPRKLMAMQRPGPYDRPGAGRGYNSIGRGAGFERMRRGAYGGGYGGYDDYNGYNDGYGFGSDRFGRDLNYCFSGMSDHRYGDGGSTFQSTTGHCVHMRGLPYRATENDIYNFFSPLNPVRVHIEIGPDGRVTGEADVEFATHEDAVAAMSKDKANMQHRYVELFLNSTAGASGGAYEHRYVELFLNSTAGASGGAYGSQMMGGMGLSNQSSYGGPASQQLSGGYGGGYGGQSSMSGYDQVLQENSSDFQSNIA

Legend:
[1] = system: 3×MBT domain of L3MBTL1; assay: Triple SILAC pull-down, 3xMBT/3xMBTD355N ratio (cytoplasmic, nuclear and chromatin fractions of 293T cells); assay type: binding, human; conditions: SILAC ratio, pull-down 3xMBT vs 3xMBTD355N; for 3xMBT/D355N UNC Heavy: experiment with UNC0638 in heavy SILAC media; for 3xMBT/D355N UNC Light: experiment with UNC0638 in light SILAC media;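 for all read-outs here: proteins quantified with MaxQuant, requiring at least two unique peptides and quantification in both label directions, normalized to the mean of proteins from a digested loading control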
[2] = molecular target: T1, G9a and GLP; assay: Triple SILAC pull-down after UNC0638 treatment of 293T cells, DMSO/UNC0638 ratio of protein captured by 3×MBT; assay type: cell-based; design: endogenous in cells; host or cells: HEK 293T; conditions: for Relative to UNC0638 UNC Heavy / Relative to UNC0638 UNC Light: SILAC ratio DMSO/UNC0638 of protein pulled down with 3xMBT; for Relative to UNC0638 UNC Heavy: UNC0638 in heavy SILAC media; for Relative to UNC0638 UNC Light: UNC0638 in light SILAC media; for Relative to UNC0638 Average: average of UNC Light and UNC Heavy experiments;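 for all read-outs here: mass spectrometry (Q-Exactive) SILAC quantitation, DMSO/UNC0638 ratio computed after subtracting 3×MBTD355N mutant pull-down background, only proteins with at least twofold 3×MBT over mutant signal considered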

Molecule	3xMBT/D355N UNC Heavy [1] [log base 2]	3xMBT/D355N UNC Light [1] [log base 2]	Relative to UNC0638 UNC Heavy [2] [log base 2]	Relative to UNC0638 UNC Light [2] [log base 2]	Relative to UNC0638 Average [2] [log base 2]
B1	2.43	2.16	0.26	0.18	0.22
B2	1.15	3.37	0.12	0.31	0.21
B3	−0.14	3.81		4.14	4.14
B4	1.85	2.27	0.24	0.19	0.21
